Data published in article PMC8562663.

Columns and labels:
[1] = biological target: abMltA triple mutant (D151K, Y162K or Y162W, E164K); experiment: SEC-MALS; settings: read off a plot
[2] = biological target: membrane-bound lytic murein transglycosylase A (MltA) from Acinetobacter baumannii, N-terminally truncated (Gly23-Asn388), wild type (Acinetobacter baumannii); experiment: SEC-MALS; Ni-NTA-purified protein on Superdex 200 10/300, 20 mM Tris-HCl pH 8.0, 150 mM NaCl, 0.3 ml/min, 25°C; DAWN TREOS detector; self-association

stoichiometry N [2] | Substance | other: molecular mass (MALS) [1]
– | membrane-bound lytic murein transglycosylase A (MltA) from Acinetobacter baumannii, N-terminally truncated (Gly23-Asn388), wild type D151K; Y162W; E164K | 45000 Da
2 | membrane-bound lytic murein transglycosylase A (MltA) from Acinetobacter baumannii, N-terminally truncated (Gly23-Asn388), wild type (enzyme) | –
